Laboratory results taken from publication doi:10.1101/2020.11.11.367672 (bioRxiv, 2020).
Each block holds one binder with its values, some of them ahead of it.

What was measured:
Assay in all cases: pull-down
[1] = biological target: GST (glutathione-S-transferase)-tagged RPAP3 (human, UniProt Q9H6T3 1-665)
[2] = biological target: RPAP3 TPR1 domain (residues 133-255) (human, UniProt Q9H6T3 133-255)
Dicer 256-595 domain = biological target: T1, Dicer 256-595 domain (human, UniProt Q9UPY3 256-595)
T1 sequence: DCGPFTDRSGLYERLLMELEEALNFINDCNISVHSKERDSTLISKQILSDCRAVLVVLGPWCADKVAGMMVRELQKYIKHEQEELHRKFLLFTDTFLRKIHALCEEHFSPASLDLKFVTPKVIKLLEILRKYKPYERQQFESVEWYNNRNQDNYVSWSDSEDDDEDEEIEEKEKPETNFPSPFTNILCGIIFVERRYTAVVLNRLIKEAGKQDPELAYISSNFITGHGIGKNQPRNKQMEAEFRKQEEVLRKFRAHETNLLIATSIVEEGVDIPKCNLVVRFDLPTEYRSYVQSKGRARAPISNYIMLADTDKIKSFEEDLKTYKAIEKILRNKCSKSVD

RPAP3 TPR1 domain (residues 133-255), sequence (Q9H6T3 133-255): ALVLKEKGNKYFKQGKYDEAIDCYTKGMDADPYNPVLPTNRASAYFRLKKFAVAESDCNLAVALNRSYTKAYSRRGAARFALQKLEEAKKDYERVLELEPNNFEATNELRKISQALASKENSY
GST (glutathione-S-transferase)-tagged RPAP3, sequence (Q9H6T3 whole entry, the tested form may be a part): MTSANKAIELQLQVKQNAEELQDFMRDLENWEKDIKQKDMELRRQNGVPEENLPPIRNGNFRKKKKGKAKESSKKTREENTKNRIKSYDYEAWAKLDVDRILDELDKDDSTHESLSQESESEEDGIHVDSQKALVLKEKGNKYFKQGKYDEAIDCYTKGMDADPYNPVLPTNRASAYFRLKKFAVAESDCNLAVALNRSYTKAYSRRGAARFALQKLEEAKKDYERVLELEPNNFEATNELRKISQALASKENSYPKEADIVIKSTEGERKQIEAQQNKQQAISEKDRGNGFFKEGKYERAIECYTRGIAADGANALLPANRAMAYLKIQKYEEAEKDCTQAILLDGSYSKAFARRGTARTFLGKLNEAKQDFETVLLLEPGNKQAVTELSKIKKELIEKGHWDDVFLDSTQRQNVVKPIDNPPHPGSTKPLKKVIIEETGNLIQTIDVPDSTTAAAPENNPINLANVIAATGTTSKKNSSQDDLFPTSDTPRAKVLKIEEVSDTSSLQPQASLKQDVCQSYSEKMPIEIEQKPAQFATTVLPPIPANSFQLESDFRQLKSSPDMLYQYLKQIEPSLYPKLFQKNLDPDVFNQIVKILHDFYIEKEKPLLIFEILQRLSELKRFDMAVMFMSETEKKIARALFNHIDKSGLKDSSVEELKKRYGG

binding result [1]: binds
B1: His6-tagged TRBP protein (purified recombinant, GST pull-down) (natural protein)
chain: MSEEEQGSGTTTGCGLPSIEQMLAANPGKTPISLLQEYGTRIGKTPVYDLLKAEGQAHQPNFTFRVTVGDTSCTGQGPSKKAAKHKAAEVALKHLKGGSMLEPALEDSSSFSPLDSSLPEDIPVFTAAAAATPVPSVVLTRSPPMELQPPVSPQQSECNPVGALQELVVQKGWRLPEYTVTQESGPAHRKEFTMTCRVERFIEIGSGTSKKLAKRNAAAKMLLRVHTVPLDARDGNEVEPDDDHFSIGVGSRLDGLRNRGPGCTWDSLRNSVGEKILSLRSCSLGSLGALGPACCRVLSELSEEQAFHVSYLDIEELSLSGLCQCLVELSTQPATVCHGSATTREAARGEAARRALQYLKIMAGSK

binding result [2]: binds
binding result (Dicer 256-595 domain): binds
B2: His6-tagged TRBP dsRBD3 (262-366) (domain or fragment)
chain: GCTWDSLRNSVGEKILSLRSCSLGSLGALGPACCRVLSELSEEQAFHVSYLDIEELSLSGLCQCLVELSTQPATVCHGSATTREAARGEAARRALQYLKIMAGSK
